Reference: patent publication US20210371455A1, “METHODS AND COMPOSITIONS COMPRISING REDUCED LEVEL OF HOST CELL PROTEINS” (Regeneron Pharmaceuticals, Inc., priority 2019, published 2021)

Columns and labels:
Format in all cases: biochemical
[1] = PS20 incubated with LAL and SIAE (CAD profile); conditions: 0.2% PS20 with 10 ppm LAL and 10 ppm SIAE together, after 5 days
Method: To examine the effect of both SIAE and LAL on PS20, 10 ppm of LAL and 10 ppm of SIAE were incubated with a solution comprising 0.2% PS20. Polysorbate in formulated mAbs were detected and identified as shown in Example 1.

PS80 degradation by LAL = conditions: LAL 10 ppm and 20 ppm, 5 days at 45° C.
Text: LAL has an ability to hydrolyze primary and higher order esters.

[2] = PS80 degradation by human PLBD2 and CHO PLBD2; conditions: PLBD2 200 μg/mL, 0.1% PS80, 45° C., 5 days; peaks eluting between 30 and 35 minutes
Method: (§1) Hydrolysis of Polysorbate 20 and PS80 with Putative Phospholipase B-like 2 (PLBD2) and Formulated Antibody. To evaluate the effect of PLBD2 on PS20 and PS80 degradation, 16 μL of 10 mM Histidine buffer pH 6.0 was mixed with 2 μL of 1% PS20 or 1% PS80, followed by adding 2 μL of […] PLBD2 and incubating the sample at 45° C. for 5 days. One aliquot (3 μL) of each sample was diluted twenty-five time by adding 72 μL 10 mM histidine, pH 6.0 and used for LC-CAD analysis.
(§2) Polysorbates degradation by recombinant human PLBD2 and in-house CHO PLBD2 was monitored as outlined in the Material and Methods section. Recombinant human PLBD2 and in-house CHO PLBD2 with concentration at 200 μg/mL were incubated with 0.1% of PS20 and PS80 for 5 days. […] By incubating PS20 with OriGene human PLBD2, a decrease in signal intensity occurred on POE-ester peaks eluting at between 27.5 and 38 minutes. The peaks eluted before 34 minutes were POE monoester containing short fatty acid chain, for example, POE sorbitan monolaurate, POE isosorbide monolaurate, POE sorbitan monomyristate and POE isosorbide monomyristate. […] Instead, because both PLBD2 proteins contain a high level of impurities, it is more likely that the difference in esterase activity originated from some unknown HCP impurities other than from PLBD2 itself.

[3] = PS20 degradation by human PLBD2 and CHO PLBD2; conditions: PLBD2 200 μg/mL, 0.1% PS20, 45° C., 5 days
Method: as §1, §2

[4] = PS80 degradation by spiked-in recombinant SIAE (2D-LC-CAD); conditions: 0.1% PS80, SIAE 50 ppm, 5 days at 45° C.
Method: (§3) Two-Dimensional Liquid Chromatography-Charged Aerosol detector (CAD)/Mass Spectrometry (MS) Assay to Detect Polysorbate Degradation. Degradation of PS20 and PS80 in CHO cell-free media or formulated antibody were analyzed by two-dimensional HPLC-CAD/MS system. The details of the setup were previously described by Genentech (Yi Li et al., Characterization and Stability Study of Polysorbate 20 in Therapeutic Monoclonal Antibody Formulation by Multidimensional Ultrahigh-Performance Liquid Chromatography-Charged Aerosol Detection-Mass Spectrometry, 86 ANALYTICAL CHEMISTRY 5150-5157 (2014)). Polysorbates were separated from formulated mAb by using Oasis MAX column (20 mm×2.1 mm, 30 μm, Waters, Milford, Mass., U.S.A.). Initial condition was set at 1% solvent B (0.1% formic acid in acetonitrile) and held for 1 min. It was increased to 20% in 1.5 minutes and dropped back down to 1% in 1.5 minutes. […]
(§4) Peak area of each ester was obtained from the CAD detector and added up to account for intact PS20 or PS80. The remaining percentage of PS20 or PS80 used in this work was calculated by comparing sum of the peak area of monoester eluting between 27.5 min and 33 min at each time point to sum of peak areas at time zero. Relative percent of different order ester or total esters can be calculated similarly.

[5] = PS20 degradation by recombinant SIAE (2D-LC-CAD)
Method: as §3, with “(2014)).” for “(2014)). Polysorbates were separated from formulated mAb by using Oasis MAX column (20 mm×2.1 mm, 30 μm, Waters, Milford, Mass., U.S.A.). Initial condition was set at 1% solvent B (0.1% formic acid in acetonitrile) and held for 1 min. It was increased to 20% in 1.5 minutes and dropped back down to 1% in 1.5 minutes.”
The 2D-LC system was set up with Thermo UltiMate 3000 and coupled with Corona Ultra CAD detector. Operating at nitrogen pressure of 75 psi for quantitation. […]
as §4
Hydrolysis of Polysorbate 20 with Sialate O-acetylesterase (SIAE) and Formulated Antibody. […] The influence of pH on the rate of PS20 degradation was determined by evaluating activity at 5.3, 6.0 and 8.0 in acetate, histidine and citrate buffer system.

| Molecule | PS20 ester species degradation [1] | PS80 degradation (PS80 degradation by LAL) | PS80 degradation [2] | PS20 degradation [3] | PS80 degradation [4] | PS20 degradation ([5]; 0.1% PS20, SIAE 2.5 ppm, 45° C., 10 mM Histidine pH 6, 10-day incubation) | pH effect on PS20 degradation by SIAE ([5]; SIAE directly incubated with PS20 in buffers pH 8.0, 6.0, 5.3) |
| --- | --- | --- | --- | --- | --- | --- | --- |
| LAL: lysosomal acid lipase encoded by the LIPA gene; recombinant, overexpressed in CHO cell (protein, UniProt P38571 77-399, looked up) Lysosomal acid …: GPKPVVFLQHGLLADSSNWVTNLANSSLGFILADAGFDVWMGNSRGNTWSRKHKTLSVSQDEFWAFSYDEMAKYDLPASINFILNKTGQEQVYYVGHSQGTTIGFIAFSQIPELAKRIKMFFALGPVASVAFCTSPMAKLGRLPDHLIKDLFGDKEFLPQSAFLKWLGTHVCTHVILKELCGNLCFLLCGFNERNLNMSRVDVYTTHSPAGTSVQNMLHWSQAVKFQKFQAFDWGSSAKNYFHYNQSYPPTYNVKDMLVPTAVWSGGHDWLADVYDVNILLTQITNLVFHESIPEWEHLDFIWGLDAPWRLYNKIINLMRKYQ | all ester species degraded | significant degradation of monoesters only | – | – | – | – | – |
| human PLBD2: recombinant human putative phospholipase B-like 2 purchased from Origene (protein) IPAPGGRWARDGQVPPASRSRSVLLDVSAGQLLMVDGRHPDAVAWANLTNAIRETGWAFLELGTSGQYNDSLQAYAAGVVEAAVSEELIYMHWMNTVVNYCGPFEYEVGYCERLKSFLEANLEWMQEEMESNPDSPYWHQVRLTLLQLKGLEDSYEGRVSFPAGKFTIKPLGFLLLQLSGDLEDLELALNKTKIKPSLGSGSCSALIKLLPGQSDLLVAHNTWNNYQHMLRVIKKYWLQFREGPWGDYPLVPGNKLVFSSYPGTIFSCDDFYILGSGLVTLETTIGNKNPALWKYVRPRGCVLEWVRNIVANRLASDGATWADIFKRFNSGTYNNQWMIVDYKAFIPGGPSPGSRVLTILEQIPGMVVVADKTSELYQKTYWASYNIPSFETVFNASGLQALVAQYGDWFSYDGSPRAQIFRRNQSLVQDMDSMVRLMRYNDFLHDPLSLCKACNPQPNGENAISARSDLNPANGSYPFQALRQRSHGGIDVKVTSMSLARILSLLAASGPTWDQVPPFQWSTSPFSGLLHMGQPDLWKFAPVKVSWD | – | – | significant degradation | Significant PS20 degradation | – | – | – |
| SIAE: recombinant sialate O-acetylesterase, host cell protein overexpressed and purified in CHO (protein) MVSLGSVFGLLLLLIIVRASRSAGIDFRFGSYIDNYMVLQKEPSGAVIWGFGTPGATVTVTLCQGQNTFKKKVTTVKAHSNTWVVVLDPMKPGGPYEVMAKQTFGITNVTLRIHDILFGDVWLCSGQSNMKMTVLQIFNASKELAVAAAYQSVRIFSASLVQAEEELEDLDKVDLSWSRPTAGNLGNGNYTYMSAVCWLFGRYLYDNLQYPIGLVSSSWGGTPIEAWSSKRALKSCGVPNTSNERILQTTRSECKSEGSLCPLGSFTLPPSVTGPATHSVLWNAMIHPLQKMTLKGVIWYQGESNEDLNRDLYSCMFPALIDDWRQTFHDGSQKQTERFFPFGFVQLSSYAETNTSDYRFPEIRWHQTADFGFVPNLKMPNTFMAVAMDLCDLNSPFGSIHPRDKQTVAYRLHLGARALAYGEKNLAFQGPLPKKIELLAHSRLLSLTYDQKIQVHRQDNKSFEISCCSDRLCKWLPVSVNSFSTKTLILGISACRGTVVDVRYAWTTWPCDYKQCAVYHPSNTLPAPPFTAPITYQAPRFRASDSSTQE | all ester species degraded | – | – | – | did not show any degradation | Significant PS20 degradation | maximum degradation at pH 6.0 |
